The target in test [1] is T1, human 5T4 on cells (human, UniProt Q13641 32-420).
T1 sequence: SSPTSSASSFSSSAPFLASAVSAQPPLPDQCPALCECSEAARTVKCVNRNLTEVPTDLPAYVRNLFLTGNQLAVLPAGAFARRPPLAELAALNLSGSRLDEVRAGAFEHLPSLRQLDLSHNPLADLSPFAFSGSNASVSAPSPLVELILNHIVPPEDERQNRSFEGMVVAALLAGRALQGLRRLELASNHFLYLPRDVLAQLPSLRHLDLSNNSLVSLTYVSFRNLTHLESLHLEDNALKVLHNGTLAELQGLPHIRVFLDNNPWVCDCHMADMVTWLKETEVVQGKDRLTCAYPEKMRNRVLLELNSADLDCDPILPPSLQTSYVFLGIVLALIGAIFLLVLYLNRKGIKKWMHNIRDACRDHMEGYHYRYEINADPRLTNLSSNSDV
As to the kind of experiment: cell-based or functional assay.

The target of test [2] is T1, human 5T4 on cells. As to the kind of experiment: cell-based or functional assay. This is another data set of the same source.
Test [3] has as its target T2, human CD137 on cells (human, UniProt Q07011 24-255).
T2 construct: also called 4-1BB; TNFRSF9 (CHO-K1/human CD137 cells)
Kind of test: flow cytometry, MFI of all CD3+CD8+ cells gated from CD3-stimulated human PBMC. As to the method:
Following 48 h of incubation with or without CD3, human and cynomolgus PBMC were harvested, pooled, recounted and diluted in FACS buffer (PBS+0.5% BSA, 0.05% NaN₃) to a concentration of 5×10⁶ cells/mL. 50 μL (0.25×10⁶ cells) of cell solution was added to a 96-well FACS staining plate (Falcon #351190). Following 10 min of Fc-blocking in RT using Beriglobin (hIgG, 200 μg/mL), cells were washed in FACS buffer and then incubated for 1 h in 4° C. with 100 μL of the biotinylated ALG.APV-210 or negative control. The antibodies were added in a serial dilution starting either at 5 μg/mL titrating down in a 12 step ⅓ dilution down to […] (exp 1) or 1 μg/mL titrating down in a 12 step ½ dilution down to 0.0005 μg/mL (exp 2). […] Cells were analysed for ALG.APV-210 binding using flow cytometry by gating on viable, single cells expressing CD3 and CD8. MFI values (FMO subtracted) from 2 independent experiments as well as normalized pooled data from 2 experiments and EC₅₀-values were determined and plotted using GraphPad Prism 7, non-linear regression log (agonist) vs. normalized response—variable slope, n=6 donors/group.

For test [4], the target named is T1, human 5T4 on cells. Kind of test: flow cytometry, CHO-hu5T4 cells, streptavidin-PE, normalized MFI of 2 pooled experiments. The protocol: (§1) Prior to the FACS staining, all cell lines were characterized for their 5T4 expression levels using a receptor density kit (Quantum Simply Cellular, anti-human IgG, Bangs Laboratories, Inc). Adherent cell lines were cultured according to their supplier's instructions and were harvested from their cell culture flasks using Trypsin/EDTA, counted in R10 medium in a Burker chamber, and diluted in FACS buffer (PBS+0.5% BSA, 0.05% NaN₃) to a concentration of 4×10⁶ cells/mL. 50 μL (0.20×10⁶) of cell solution was added to a 96-well FACS staining plate (Falcon #351190). Cells were incubated for 20 min in 4° C. with 50 μL of the biotinylated ALG.APV-210 (2× final concentration). The antibodies were added in a serial dilution starting at 20 μg/mL titrating down in a 12 step ½ dilution down to 0.010 μg/mL. Following 2× washing with FACS buffer, cells were incubated for 30 min in 4° C. with 100 μL of a secondary antibody (streptavidin-PE, BD #554061, diluted 1/500). […] Cells were analysed for ALG.APV-210 binding using flow cytometry (FACSVerse) by gating on single cells. MFI values (secondary antibody only subtracted) from 1 out of 2 independent experiments, as well as normalized data and EC₅₀-values of pooled data from 2 experiments were determined and plotted using GraphPad Prism 7, non-linear regression log (agonist) vs. normalized response—variable slope.
(In general: In flow cytometry, cells or beads pass a laser one at a time.)

Test [5] deals with T1, human 5T4 on cells. Kind of test: flow cytometry, CT26 cells transfected with human 5T4 (intermediate clone), biotinylated ALG.APV-210 + streptavidin-PE, 1 of 2 experiments. The protocol: as §1, with “μg/mL.” for “μg/mL. Following 2× washing with FACS buffer, cells were incubated for 30 min in 4° C. with 100 μL of a secondary antibody (streptavidin-PE, BD #554061, diluted 1/500).”
The binding (EC₅₀) of the biotinylated ALG.APV-210 to 5T4 when expressed on cells, either at endogenous levels on human tumor cells or on cells transfected to express 5T4 was assessed. […]

T2 sequence (Q07011 24-255 limits assumed): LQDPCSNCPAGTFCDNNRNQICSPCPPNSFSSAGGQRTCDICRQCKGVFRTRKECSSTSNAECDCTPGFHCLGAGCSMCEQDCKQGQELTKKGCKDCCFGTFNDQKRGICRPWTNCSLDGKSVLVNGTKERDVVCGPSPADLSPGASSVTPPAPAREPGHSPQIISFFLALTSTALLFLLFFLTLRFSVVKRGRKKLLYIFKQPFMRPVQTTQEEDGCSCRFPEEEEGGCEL

B1: ALG.APV-210 (bispecific antibody)
chain: EVQLLESGGGLVQPGGSLRLSCAASGFTFSHGSMYWVRQAPGKGLEWVSSISSGSGSTYYADSVKGRFTISHDNSKNTLYLQMNSLRAEDTAVYYCARSSYYGSYYSIDYWGQGTLVTVSSGGGGSGGGGSGGGGSGGGGSDIQMTQSPSSLSASVGDRVTITCRASQSISSYLNWYQQKPGKAPKLLIYAASSLQSGVPSRFSGSGSGTDFTLTISSLQPEDFATYYCQQYYDNLPTFGQGTKLEIKEPKSSDKTHTCPPCPAPEAAGAPSVFLFPPKPKDTLMISRTPEVTCVVVDVSHEDPEVKFNWYVDGVEVHNAKTKPREEQYNSTYRVVSVLTVLHQDWLNGKEYKCAVSNKALPAPIEKTISKAKGQPREPQVYTLPPSRDELTKNQVSLTCLVKGFYPSDIAVEWESNGQPENNYKTTPPVLDSDGSFFLYSKLTVDKSRWQQGNVFSCSVMHEALHNHYTQKSLSLSPGSGGGGSGGGGSGGGGSPSEVQLLESGGGLVQPGGSLRLSCAASGFTFSSYAMSWVRQAPGKCLEWVSAISGSGGSTYYADSVKGRFTISRDNSKNTLYLQMNSLRAEDTAVYYCARYYGGYYSAWMDYWGQGTLVTVSSGGGGSGGGGSGGGGSGGGGSDIQMTQSPSSLSASVGDRVTITCRASQSISSFLNWYQQKPGKAPKLLIYAASSLQSGVPSRFSGSGSGTDFTLTISSLQPEDSATYYCQQTYGYLHTFGCGTKLEIKR
notes: Optimized ADAPTIR scFv-Fc-scFv homodimer with stabilizing disulfide in the 1210 scFv; also called 5T4-CD137 bispecific antibody
As for B1, in test [1], the “maximal IFNγ release with CT26-h5T4^low cells relative to CT26-h5T4^high cells” value amounted to 82% and the “maximal IFNγ release with CT26-wt cells (no 5T4) relative to CT26-h5T4^high cells” value came out at 7%. Also, the “EC50 (nM), IFNγ release of human CD8+ T cells with HCT116 cells” value in test [2] worked out at 0.17 nM.

B2: biotinylated ALG.APV-210 (bispecific antibody)
chain: EVQLLESGGGLVQPGGSLRLSCAASGFTFSHGSMYWVRQAPGKGLEWVSSISSGSGSTYYADSVKGRFTISHDNSKNTLYLQMNSLRAEDTAVYYCARSSYYGSYYSIDYWGQGTLVTVSSGGGGSGGGGSGGGGSGGGGSDIQMTQSPSSLSASVGDRVTITCRASQSISSYLNWYQQKPGKAPKLLIYAASSLQSGVPSRFSGSGSGTDFTLTISSLQPEDFATYYCQQYYDNLPTFGQGTKLEIKEPKSSDKTHTCPPCPAPEAAGAPSVFLFPPKPKDTLMISRTPEVTCVVVDVSHEDPEVKFNWYVDGVEVHNAKTKPREEQYNSTYRVVSVLTVLHQDWLNGKEYKCAVSNKALPAPIEKTISKAKGQPREPQVYTLPPSRDELTKNQVSLTCLVKGFYPSDIAVEWESNGQPENNYKTTPPVLDSDGSFFLYSKLTVDKSRWQQGNVFSCSVMHEALHNHYTQKSLSLSPGSGGGGSGGGGSGGGGSPSEVQLLESGGGLVQPGGSLRLSCAASGFTFSSYAMSWVRQAPGKCLEWVSAISGSGGSTYYADSVKGRFTISRDNSKNTLYLQMNSLRAEDTAVYYCARYYGGYYSAWMDYWGQGTLVTVSSGGGGSGGGGSGGGGSGGGGSDIQMTQSPSSLSASVGDRVTITCRASQSISSFLNWYQQKPGKAPKLLIYAASSLQSGVPSRFSGSGSGTDFTLTISSLQPEDSATYYCQQTYGYLHTFGCGTKLEIKR
notes: also called ALG.APV-210 (biotinylated for FACS detection)
As a reminder, the EC50 is the concentration needed to bring the measured effect to its halfway point. Read a high EC50 as weaker potency. The EC50 (read off the curve) is the concentration needed to bring the measured effect to its halfway point. On to B2, for which the figures for the EC50 in test [3] and in test [4] were 0.235 nM and 23 nM, respectively. The “EC50 (read off the curve)” value in test [5] was around 10 nM.

For the origin of these results see patent publication US20190016816A1 (APTEVO RESEARCH AND DEVELOPMENT, published 2019).
